Source: patent US9605064B2, “Methods and compositions for treatment of skin disorders” (AbbVie Biotechnology Ltd, priority 2006, dated 2017)
Several values for one entry are separate records, joined by “and”; a condition that tells them apart may be missing. Identical values can stand only once.

Tested on: patients with moderate to severe chronic plaque psoriasis
Test: Adverse events, Phase II trial with 48-week extension
Conditions: for patients with serious adverse events (SAEs): 60-week trial
[1] = Weeks 12-60, 40 mg weekly, prior systemic use (n = 21)
[2] = Weeks 12-60, Placebo/Adalimumab 40 mg eow + Adalimumab 40 mg eow (n = 92)
[3] = Weeks 12-60, placebo/adalimumab 40 mg eow + adalimumab 40 mg eow, no prior use (n = 47)
[4] = Weeks 12-60, placebo/adalimumab 40 mg eow + adalimumab 40 mg eow, prior biologic use (n = 16)
[5] = Weeks 12-60, placebo/adalimumab 40 mg eow + adalimumab 40 mg eow, prior systemic use (n = 35)
[6] = all patients, Weeks 0-12, 40 mg eow (N = 45)
[7] = all patients, Weeks 0-12, 40 mg weekly (N = 50)
[8] = all patients, Weeks 12-60, 40 mg weekly (n = 50)
[9] = all patients, Weeks 12-60, placebo/adalimumab 40 mg eow + adalimumab 40 mg eow (N = 92)
[10] = baseline PASI ≧10 and DLQI >10, Weeks 0-12, 40 mg eow (N = 26)
[11] = baseline PASI ≧10 and DLQI >10, Weeks 0-12, 40 mg weekly (N = 23)
[12] = baseline PASI ≧10 and DLQI >10, Weeks 12-60, 40 mg weekly (N = 23)
[13] = baseline PASI ≧10 and DLQI >10, Weeks 12-60, placebo/adalimumab 40 mg eow + adalimumab 40 mg eow (N = 41)
[14] = weeks 12-60, 40 mg weekly (N = 50)
[15] = weeks 12-60, placebo/adalimumab 40 mg eow + adalimumab 40 mg eow (N = 92)

Text: The study was a randomized, double-blind, placebo-controlled, multi-center clinical trial, wherein patients were randomized to one of three treatment groups. The three treatment groups consisted of the following: • 1. […] Inclusion criteria included a diagnosis of moderate to severe chronic plaque psoriasis≧1 year prior to entry, a psoriasis-affected body surface area (BSA)>5%, and no previous use of TNF-antagonist therapy.
Inclusion criteria for the study included the following parameters: ≧18 years of age; moderate to severe chronic plaque psoriasis≧1 year; and affected BSA≧5%. […] Efficacy outcome measures included PASI and PGA.
Inclusion criteria included patients being 18 years of age; having moderate to severe chronic plaque psoriasis≧1 year; and affected BSA≧5%. Exclusion criteria included prior TNF-antagonist therapy and discontinuation of other systemic psoriasis therapies. Efficacy outcome measures which were used included PASI, PGA, DLQI.
Inclusion criteria included: • ≧18 years of age • Moderate to severe chronic plaque psoriasis 1 year • Affected BSA≧5% Exclusion criteria included: • Prior TNF-antagonist therapy • Discontinuation of other systemic psoriasis therapies Efficacy outcome was measured using PASI and DLQI responses/scores.

## Adalimumab: a human anti-TNF mAb, described in U.S. Pat. No. 6,090,382 as D2E7 (HUMIRA, Abbott Laboratories)
[1]
  Any AE: (81) %
  Any AE, number of patients: 17
  Serious AE: (10) %
  Serious AE, number of patients: 2
[2]
  Adverse Events Leading to Withdrawal: 3 (3.3) n (%)
  Any Adverse Event: 72 (78.3) n (%)
  Serious Adverse Events: 2 (2.2) n (%)
[3]
  AE's→Withdrawal: (2) %
  AE's→Withdrawal, number of patients: 1
  Any AE: (79) %
  Any AE, number of patients: 37
  Serious AE: (0) %
  Serious AE, number of patients: 0
[4]
  AE's→Withdrawal: (6) %
  AE's→Withdrawal, number of patients: 1
  Any AE: (75) %
  Any AE, number of patients: 12
  Serious AE: (13) %
  Serious AE, number of patients: 2
[5]
  AE's→Withdrawal: (6) %
  AE's→Withdrawal, number of patients: 2
  Any AE: (80) %
  Any AE, number of patients: 28
  Serious AE: (6) %
  Serious AE, number of patients: 2
Weeks 12-60, range across treatment groups
  patients who withdrew due to adverse events: 3-10%
[6]
  AEs leading to withdrawal: 2 (4) n (%) and 2 (4.4) n (%)
  Any AE: 28 (62) n (%) and 28 (62.2) n (%)
  Serious AEs: 1 (2) n (%) and 1 (2.2) n (%)
[7]
  AEs leading to withdrawal: 3 (6) n (%)
  Any AE: 39 (78) n (%)
  Serious AEs: 4 (8) n (%)
[8]
  AEs leading to withdrawal: 5 (10) n (%)
  Any AE: 39 (78) n (%)
  Serious AEs: 7 (14) n (%)
[9]
  AEs leading to withdrawal: 3 (3) n (%) and 3 (3.3) n (%)
  Any AE: 72 (78) n (%) and 72 (87.3) n (%)
  Serious AEs: 2 (2) n (%) and 2 (2.2) n (%)
[10]
  AEs leading to withdrawal: 0 (0) n (%)
  Any AE: 16 (62) n (%)
  Serious AEs: 0 (0) n (%)
[11]
  AEs leading to withdrawal: 1 (4) n (%)
  Any AE: 19 (83) n (%)
  Serious AEs: 2 (9) n (%)
[12]
  AEs leading to withdrawal: 0 (0) n (%)
  Any AE: 11 (48) n (%)
  Serious AEs: 0 (0) n (%)
[13]
  AEs leading to withdrawal: 2 (5) n (%)
  Any AE: 23 (56) n (%)
  Serious AEs: 1 (2) n (%)
Dosage escalation group
  Serious Adverse Events: no serious adverse events were observed
  withdrew from the study due to adverse events: two others
Dosage escalation group, listed as adalimumab
  Serious Adverse Events: One patient
Patients with PASI 75-99 and DLQI=0
  patients who had adverse events: 80%
Patients with PASI 75-99 and DLQI>0
  patients who had adverse events: 91%
Patients with PASI 100 and DLQI=0
  patients who had adverse events: 91%
Patients with PASI 100 and DLQI>0
  patients who had adverse events: 50%
prior-biologic patients
  patients with serious adverse events (SAEs): 4 patients
prior-systemic patients
  patients with serious adverse events (SAEs): 7 patients
[14]
  Back pain, number of patients: 4
  Back pain, percentage (in parentheses): (8.0)
  Blood CPK increased, number of patients: 2
  Blood CPK increased, percentage (in parentheses): (4.0)
  Blood TG increased, number of patients: 2
  Blood TG increased, percentage (in parentheses): (4.0)
  Headache, number of patients: 6
  Headache, percentage (in parentheses): (12.0)
  Muscle strain, number of patients: 4
  Muscle strain, percentage (in parentheses): (8.0)
  Nasopharyngitis, number of patients: 6
  Nasopharyngitis, percentage (in parentheses): (12.0)
  Skin papilloma, number of patients: 5
  Skin papilloma, percentage (in parentheses): (10.0)
  URI, NOS, number of patients: 7
  URI, NOS, percentage (in parentheses): (14.0)
  URI, viral NOS, number of patients: 3
  URI, viral NOS, percentage (in parentheses): (6.0)
  Urticari, number of patients: 3
  Urticari, percentage (in parentheses): (6.0)
[15]
  Back pain, number (percentage in parentheses): 4 (4.3)
  Blood CPK increased, number (percentage in parentheses): 5 (5.4)
  Blood TG increased, number (percentage in parentheses): 7 (7.6)
  Headache, number (percentage in parentheses): 3 (3.3)
  Muscle strain, number (percentage in parentheses): 1 (1.1)
  Nasopharyngitis, number (percentage in parentheses): 13 (14.1)
  Skin papilloma, number (percentage in parentheses): 3 (3.3)
  URI, NOS, number (percentage in parentheses): 9 (9.8)
  URI, viral NOS, number (percentage in parentheses): 4 (4.3)
  Urticari, number (percentage in parentheses): 0 (0.0)
Without recent prior systemic or biologic therapy
  patients with serious adverse events (SAEs): 5 patients
